Experimental data from the supplement of paper PMC9170038.

Test system: K4 kissing-loop RNA reporter
Assay: apparent KD of K4 kissing-loop reporter; higher = weaker reporter binding
Details: Eterna round: R107
Description: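 RNA-MaP round R107: designed RNA switches with theophylline, tryptophan, arginine or FMN aptamers are transcribed on-chip within common flanks. They are titrated with a labelled K4 kissing-loop RNA reporter in RNA-MaP buffer (100 mM Tris pH 7.5, 80 mM KCl, 4 mM MgCl2), without ligand or with the indicated ligand. Median apparent KD per design.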

[1] = input ligand: theophylline 20 uM
[2] = input ligand: tryptophan 2.4 mM
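Further: bound reporter read as fluorescence of individual clusters on recovered sequencing chips by microscopy, with normalized cluster intensities fitted with a binding model.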

Sequence | apparent KD of K4 kissing-loop reporter (input ligand: FMN 200 uM) | apparent KD of K4 kissing-loop reporter (input ligand: arginine 13.2 mM) | apparent KD of K4 kissing-loop reporter (input ligand: none) | apparent KD of K4 kissing-loop reporter [1] | apparent KD of K4 kissing-loop reporter [2]
CAUACGCAUGGAGGAUAUGAGAUUUCUCAUAUUAUUGCUUAUUCUCAGUGAUGUUGGGAUUUAAGCUCAGAAGGCCAUGUGUAUG [Ex FMN B 10] | 187 nM | 88.4 nM | 98 nM | 94.2 nM | 85.8 nM
CAUAGACAAGUGAUGUUUGUCAUAACCGAAGGAGCGUCUUUAAAGACAGGUAGGUCGCGGAUUAAUUAAGUUAUGAUUCUUUUUA [JR_SSArginiA_Sub017] | 630 nM | 572 nM | 661 nM | 642 nM | 531 nM
CAUAGGAAACUAUGUUUCUCUCUUACUGAAGGAGCGCGUGAAAACGCAGGUAGGUCGCAGAUUUUGAGAGUGAUGUUCUCAAUAA [Ex Arginine A K4 18] | 128 nM | 167 nM | 139 nM | 155 nM | 91.7 nM
CAUAGUCACUGUGAUACCAGCCCGACUCUUGGCGUCUGCGGUCAAAGCCCAGUGAUGUUGGGCCCUUGGCAGCAUGGCGGCAACA [Xelexebi] | 136 nM | 114 nM | 132 nM | 112 nM | 120 nM
CAUUCAGUGAUGUUGGAAGGCGAGCGGGAUACCAGCGGAGACUCACGCCCUUGGCAGCCCAUAUAUCCCAGGUAGAUAAUAGUUC [Same State - Theophylline A (Freestyle 5)] | 276 nM | 117 nM | 217 nM | 219 nM | 201 nM
CCAAACAGUUACGAUACCAGUCUAAUAUAUUUGAUCAAAACCCUCGCCGAGUGAUGUUCGGACCCUUGGCAGCGUCUGGGACAGG [zzbtmullin] | 479 nM | 378 nM | 500 nM | 414 nM | 371 nM
CCAACAACGAGUGAUGUUCGUUGAUCAGAAGGAGCGUCAAUAAUGACAGGUAGGUCGCUGAUAAUUGGAAAUAGGGCAAUAGCUU [Same State Arginine A GF12] | 110 nM | 113 nM | 115 nM | 120 nM | 105 nM
CCAGUGAUAAACGAUACCAGAAAUACCUUAUUUGGCCGGCGGAGUGAUGUUCCUAAUACUUUCCCUUGGCAGCGUCGAAUGCUAG [theeternabot_sameState_KL_Theo_B_16] | 43.8 nM | 61.1 nM | 46 nM | 99 nM | 42.3 nM
CCAUCGCUAUUCGAUACCAGCUACUUAGUGAUGUUAAGUUAAAAUCAAUUGUAGAUUGAAAGCCCUUGGCAGCGAAUAGUGAUGG [Theophylline B K4 21] | 157 nM | 123 nM | 139 nM | 83.8 nM | 135 nM
CCAUCGCUAUUCGAUACCAGCUCCUUAGUGAUGUUAAGGUUUUACCCACUGUAGGUGGGAAGCCCUUGGCAGCGAAUAGUGAUGG [Theophylline B K4 28] | 982 nM | 872 nM | 1150 nM | 538 nM | 1030 nM
CCAUCGCUAUUCGAUACCAGUCAAAAUAAAAUAAUAAAUCUGCAAAGGAGUGAUGUUCCAGACCCUUGGCAGCGAAUAGUGAUGG [Theophylline B K4 2] | 746 nM | 552 nM | 834 nM | 709 nM | 723 nM
CCAUCGCUAUUCGAUACCAGUCAUCAAAUCUUUGGUUUGAUAAAGGAGUGAUGUUCCCAAGACCCUUGGCAGCGAAUAGUGAUGG [Theophylline B K4 10] | 252 nM | 212 nM | 224 nM | 175 nM | 230 nM
CCAUUCUUUUACGAUACCAGUUUUAUUUAGUUAUUCAUAACCCUUGCCGAGUGAUGUUCGGACCCUUGGCAGCGUUUGCGAGAGG [zaadvmullin] | 286 nM | 299 nM | 355 nM | 411 nM | 272 nM
CCGACUGCAGGAAGGAGCGGCGGUUGGAGUGAUGUUCCAGGUAGUGAUGUUACCAAGAUCCGCCAGGUAGGUCGCCUGUUGCUCA [Same State Arginie B GF 12] | 156 nM | 106 nM | 115 nM | 148 nM | 125 nM
CCGCCAUCGUCAGAUACCAGGCUGAUGGCGGUAACCGCCAAGCGAGUGAUGUUCGCAUCAGUCCCUUGGCAGCUGACGAAGACUG [#16 K4 Theophylline B Same State] | 176 nM | 86.9 nM | 190 nM | 283 nM | 133 nM
CCGGGCGGCUGAAGGAGCGGGCGGGCCCGAGUGAUGUUCGGGUGGACCGUGAGGUCCGGUGCCCAGGUAGGUCGCGGUUCCGCCC [#2 Same State - Arginine B Attempt #8 (HarryS)] | 247 nM | 183 nM | 162 nM | 296 nM | 238 nM
